Data set [1] has as its system yPrp3CTF R304A. As to the kind of experiment: ITC. To be noted: 20 C, GAGA-fused RNA; EMSA: 20 mM Tris-HCl pH 7.0, 150 mM NaCl, 2 mM DTT, 0.5 ug/ul tRNA, 4 C; titrations: 20 mM HEPES pH 6.8, 150 mM NaCl, 0.33 ug/ul tRNA; human FL/N/C: 10 mM Tris …. In general terms: In EMSA bound probe runs differently from free probe, usually more slowly.
The test system of data set [2] is yPrp3DUF1115. As to the kind of experiment: ITC. To be noted: EMSA: 20 mM Tris-HCl pH 7.0, 150 mM NaCl, 2 mM DTT, 0.5 ug/ul tRNA, 4 C; titrations: 20 mM HEPES pH 6.8, 150 mM NaCl, 0.33 ug/ul tRNA; human FL/N/C: 10 mM Tris ….
Data set [3] has as its system yPrp3CTF R322A. As to the kind of experiment: ITC. To be noted: 20 C, GAGA-fused RNA; EMSA: 20 mM Tris-HCl pH 7.0, 150 mM NaCl, 2 mM DTT, 0.5 ug/ul tRNA, 4 C; titrations: 20 mM HEPES pH 6.8, 150 mM NaCl, 0.33 ug/ul tRNA; human FL/N/C: 10 mM Tris ….
The test system of data set [4] is yPrp3CTF. As to the kind of experiment: ITC. To be noted: 20 C, GAGA-fused RNA; EMSA: 20 mM Tris-HCl pH 7.0, 150 mM NaCl, 2 mM DTT, 0.5 ug/ul tRNA, 4 C; titrations: 20 mM HEPES pH 6.8, 150 mM NaCl, 0.33 ug/ul tRNA; human FL/N/C: 10 mM Tris ….
The test system of data set [5] is yPrp3CTF R304A. As to the kind of experiment: EMSA. To be noted: tRNA competitor; apparent Kd; EMSA: 20 mM Tris-HCl pH 7.0, 150 mM NaCl, 2 mM DTT, 0.5 ug/ul tRNA, 4 C; titrations: 20 mM HEPES pH 6.8, 150 mM NaCl, 0.33 ug/ul tRNA; human FL/N/C: 10 mM Tris ….
The test system of data set [6] is yPrp3DUF1115. As to the kind of experiment: EMSA. To be noted: tRNA competitor; apparent Kd; EMSA: 20 mM Tris-HCl pH 7.0, 150 mM NaCl, 2 mM DTT, 0.5 ug/ul tRNA, 4 C; titrations: 20 mM HEPES pH 6.8, 150 mM NaCl, 0.33 ug/ul tRNA; human FL/N/C: 10 mM Tris ….
The test system of data set [7] is yPrp3CTF R322A. As to the kind of experiment: EMSA. To be noted: tRNA competitor; apparent Kd; EMSA: 20 mM Tris-HCl pH 7.0, 150 mM NaCl, 2 mM DTT, 0.5 ug/ul tRNA, 4 C; titrations: 20 mM HEPES pH 6.8, 150 mM NaCl, 0.33 ug/ul tRNA; human FL/N/C: 10 mM Tris ….
For data set [8], the system named is yPrp3CTF. As to the kind of experiment: EMSA. To be noted: tRNA competitor, EMSA: 20 mM Tris-HCl pH 7.0, 150 mM NaCl, 2 mM DTT, 0.5 ug/ul tRNA, 4 C, titrations: 20 mM HEPES pH 6.8, 150 mM NaCl, 0.33 ug/ul tRNA, human FL/N/C: 10 mM Tris ….

As for yU4/U6 stem II+13nt, the Kd is 0.26 µM in data set [1]; 0.38 µM in data set [2]; 0.4 µM in data set [3]; 0.11 µM in data set [4]; 1.58 µM in data set [5]; 1.83 µM in data set [6]. The Kd was determined as 2.63 µM in data set [7] and 0.92 µM in data set [8] (apparent Kd).
Consider yU4/U6 stem II+13nt U4 C12G, for which the binding signal (fold lower affinity than wt) in data set [8] amounted to 2.
Substance yU4/U6 stem II+13nt U6 C69G came in with a binding signal (fold lower affinity than wt) in data set [8] of 2.

Values taken from PMC4520091.
